The values below come from paper PMC3753650.

Some results are limits rather than exact numbers.

Series [1] deals with T1, RNA polymerase sigma70 holoenzyme, molecular beacon derivative (Ec Esigma70 beacon) (Escherichia coli) (UniProt P0A7Z4+P0A7Z4+P0A8V2+P0A8T7+P0A800+P00579). Nature of the series: RNAP beacon fluorescence. To be noted: Equilibrium RNAP molecular beacon fluorescence, 25 C and 1 nM RNAP in competition assays, buffer, salt and pH not in material, Kd error 20% (>0.4 nM), ~50% ….

The target in series [2] is T1, RNA polymerase sigma70 holoenzyme, molecular beacon derivative (Ec Esigma70 beacon) (Escherichia coli). Kind of series: competition. The following applies: Equilibrium RNAP molecular beacon fluorescence; 25 C and 1 nM RNAP in competition assays; buffer, salt and pH not in material; Kd error 20% (>0.4 nM), ~50% ….

By Kd is commonly meant the free concentration of one partner at which half of the binding sites on the other are occupied at equilibrium, for simple one-to-one binding. With “AAAAAAAGAATTTGACATCAGGAAAATTTTTTGGT (double strand) [probe 24]”, in series [1], the Kd was 0.00019 µM. For “AAAAAAAGAATTTGACATCAGGAAAATTTTTTGGT / AGCAACCAAAAAATTTTCCTGATGTCAAATTCTTTTTTT [probe 27]”, the Kd in series [1] was less than 0.0001 µM. Same read-out and setting: the value for “AAAAAAAGAATTTGACATCAGGAAAATTTTTTGGTTGCT (double strand) [probe 25]” was 0.011 µM. “AAAAAAAGAATTTGACATCAGGAAAATTTTTTGGTTGCT / ACCAAAAAATTTTCCTGATGTCAAATTCTTTTTTT [probe 26]”: in series [1], the dissociation constant (Kd) is less than 0.0001 µM. “GGAAAATTTTTTGGTATAAAAGA / ACCAAAAAATTTTCC [probe 9(-7A)]”: the binding signal (fold weaker than probe 9) in series [1] was 710. As to “GGAAAATTTTTTGGTTTAATAGA / ACCAAAAAATTTTCC [probe 9(-11T)]”, in series [1], the binding signal (fold weaker than probe 9) is 300.

Take TATAATGGGTTCAT [probe 30]: the Kd in series [1] was 0.073 µM. On to “TATTTGACATCAGGAAAATTTTTCTGT (double strand) [probe 1]”, for which, in series [1], the Kd was 0.062 µM. Regarding “TATTTGACATCAGGAAAATTTTTCTGTA / ATTATACAGAAAAATTTTCCTGATGTCAAATA [probe 29]”, in series [1], the binding signal (fold tighter than probe 19) came out at 13. With “TATTTGACATCAGGAAAATTTTTCTGTA / TTATACAGAAAAATTTTCCTGATGTCAAATA [probe 28]”, in series [1], the binding signal (fold tighter than probe 19) was determined as 5. Turning to “TATTTGACATCAGGAAAATTTTTCTGTAGTTA / ACAGAAAAATTTTCCTGATGTCAAATA [probe 10(-7A)]”, the binding signal (fold weaker than probe 10) in series [1] stood at 8. Turning to “TATTTGACATCAGGAAAATTTTTCTGTATAA / ACAGAAAAATTTTCCTGATGTCAAATA [probe 5]”, in series [2], the binding signal (fold tighter than probe 2) came to 50. For the sequence “TATTTGACATCAGGAAAATTTTTCTGTATAA / CAGAAAAATTTTCCTGATGTCAAATA [probe 31]”, in series [2], the binding signal (fold weaker than probe 5) was found to be 10. With “TATTTGACATCAGGAAAATTTTTCTGTT / ACAGAAAAATTTTCCTGATGTCAAATA [probe 2(-11T)]”, the binding signal (fold weaker than probe 2) in series [1] was 5. Turning to “TATTTGACATCAGGAAAATTTTTCTGTTGTTA / ACAGAAAAATTTTCCTGATGTCAAATA [probe 11(-7A)]”, the binding signal (fold weaker than probe 11) in series [1] turned out to be 2.4. Take “TATTTGACATCAGGAAAATTTTTCTGTTT / ACAGAAAAATTTTCCTGATGTCAAATA [probe 3(-11T)]”: the binding signal (fold weaker than probe 3) in series [1] worked out at 5. Consider “TATTTGACATCAGGAAAATTTTTCTGTTTAA (double strand) [probe 22(-11T)]”, for which the Kd in series [1] worked out at 0.12 µM. Consider “TATTTGACATCAGGAAAATTTTTCTGTTTAA / ACAGAAAAATTTTCCTGATGTCAAATA [probe 5(-11T)]”, for which the binding signal (fold weaker than probe 5) in series [1] stood at 200.

With “TATTTGACATCAGGAAAATTTTTCTGTTTAAA / ACAGAAAAATTTTCCTGATGTCAAATA [probe 6(-11T,-7A)]”, the binding signal (fold weaker than probe 6(-11T)) in series [1] came out at 110.

As to “TATTTGACATCAGGAAAATTTTTCTGTTTAAT (double strand) [probe 23(-11T)]”, the Kd in series [1] worked out at 0.016 µM. “TATTTGACATCAGGAAAATTTTTCTGTTTAAT / ACAGAAAAATTTTCCTGATGTCAAATA [probe 6(-11T)]”: the binding signal (fold weaker than probe 6) in series [1] (~120-fold tighter than 5(-11T)) came out at 1000. On to “TATTTGACATCAGGAAAATTTTTTGGA (double strand) [probe 15(-12A)]”, for which the binding signal (fold weaker than probe 15) in series [1] was 4. For the sequence “TATTTGACATCAGGAAAATTTTTTGGAATAA / TCCAAAAAATTTTCCTGATGTCAAATA [probe 17(-12A)]”, the binding signal (fold tighter than 16(-12A)) in series [1] (strongly weaker than probe 17) came to 6. Consider “TATTTGACATCAGGAAAATTTTTTGGAATAAT / TCCAAAAAATTTTCCTGATGTCAAATA [probe 18(-12A)]”, for which, in series [1], the binding signal (fold tighter than 17(-12A)) worked out at 300. For “TATTTGCTTTCAGGAAAATTTTTCTGTATAAA / CAGAAAAATTTTCCTGAAAGCAAATA [probe 8(-7A)]”, the binding signal (fold weaker than probe 8) in series [1] is 210. Regarding “TGGTTGACTTTTGCCAGATACTGAGGCTGGC / GCCTCAGTATCTGGCAAAAGTCAACCA [probe 13]”, the Kd in series [1] turned out to be 0.1 µM.

“TGGTTGACTTTTGCCAGATACTGAGGCTGGCA / GCCTCAGTATCTGGCAAAAGTCAACCA [probe 12(-7A)]”: the Kd in series [1] was found to be 0.1 µM. For the sequence “TGGTTGACTTTTGCCAGATACTGAGGCTGGCT / GCCTCAGTATCTGGCAAAAGTCAACCA [probe 12]”, the Kd in series [1] amounted to 0.011 µM.
